Test results from article PMC8410769, “A CDK-regulated chromatin segregase promoting chromosome replication” (Nature Communications, 2021).

Biological target: the molecule itself
Experiment: SEC; Superose 6 (3.2/300) in 150 mM KCl, 25 mM Tris-HCl pH 7.2, 5% glycerol, 0.05% NP-40, 1 mM EDTA, 4 mM MgCl2; purified Yta7 and mutants

B1: Yta7 ATP-binding mutant (K460A, Walker A), 3xFLAG-tagged (enzyme, S. cerevisiae, UniProt P40340 1-1379, looked up)
chain: MARNLRNRRGSDVEDASNAKVGYETQIKDENGIIHTTTRSLRKINYAEIEKVFDFLEDDQVMDKDETPVDVTSDEHHNNNQKGDDEDDDVDLVSPHENARTNEELTNERNLRKRKAHDPEEDDESFHEEDVDDDEEEEEADEFEDEYLDEDSKDNNRRRRAADRKFVVPDPDDDEEYDEDDEEGDRISHSASSKRLKRANSRRTRSSRHPETPPPVRRALRSRTRHSRTSNEENDDENDNSRNEALTLADEIRELQEDSPIREKRFLRERTKPVNYKLPPPLTASNAEEFIDKNNNALSFHNPSPARRGRGGWNASQNSGPTRRLFPTGGPFGGNDVTTIFGKNTNFYNQVPSAFSDNNNNKLILDSDSSDDEILPLGVTPKTKKENTQKKKKKKPEIADLDPLGVDMNVNFDDIGGLDNYIDQLKEMVALPLLYPELYQNFNITPPRGVLFHGPPGTGATLMARALAASCSSDERKITFFMRKGADILSKWVGEAERQLRLLFEEAKKHQPSIIFFDEIDGLAPVRSSKQEQIHASIVSTLLALMDGMDNRGQVIVIGATNRPDAVDPALRRPGRFDREFYFPLPDVKARFKILQIQTRKWSSPLSTNFIDKLAFLTKGYGGADLRSLCTEAALISIQRSFPQIYRSNDKLLVDPSKIKVKVSDFMLALKKIVPSSARSTGSSPQPLPELIKPLLADQLNNLKNKLDYMLNIKDTTFQRNTSLLQNFIDYEEYSGEEEEHDKYGGNEDTSSFRSYEFFESMAESQICKPRLLINGPKGNGQQYVGAAILNYLEEFNVQNLDLASLVSESSRTIEAAVVQSFMEAKKRQPSVVFIPNLDIWINTIPENVILVLSGLFRSLQSNEKILLLCLAENLDISEVKNGILSDFAFDKNIFQLHKPSKENITRYFSNLIELLKTKPSDIPMKKRRVKPLPELQKVTSNAAPTNFDENGEPLSEKVVLRRKLKSFQHQDMRLKNVLKIKLSGLMDLFKNRYKRFRKPPIDDAFLVHLFEPETSNDPNWQPAYIKDENMILEVSTGRKFFNMDLDIVEERLWNGYYSEPKQFLKDIELIYRDANTIGDRERVIKASEMFANAQMGIEEISTPDFIQECKATRQRDLERQELFLEDEEKRAAMELEAKEQSQENILQEPDLKDNKANEFGVAAGNQLQAQLQTTINTASIVNNSEVPQPIDTNLYKKEIPAAIPSAVDKEKAVIPEDSGANEEYTTELIQATCTSEITTDDDERARKEPKENEDSLQTQVTEENFSKIDANTNNINHVKEIQSVNKPNSLHETVEKRERSPIPKEVVEPEQGKKSDKELILTPEQIKKVSACLIEHCQNFTVSQLEDVHSSVAKIIWKSKSAWDKTGTVDEIIKFLSE
notes: Yta7, Saccharomyces cerevisiae; K460A mutant of the Walker A motif within the active AAA+ domain; also called ATPase mutant; source: S. cerevisiae (GAL1-10 promoter, G1-arrested, endogenous copy eliminated), purified (anti-FLAG M2, MonoQ, SEC); not shown: 3xFLAG, C-terminal, kept
- stoichiometry N: 6
